Experimental data reported in patent US20170252458A1 (EISAI R AND D MANAGEMENT, published 2017).
Where “and” joins values, the source holds several entries; their conditions need not be identical. Equal entries are not always repeated.

Target: T1, Recombinant human folate receptor alpha (human, UniProt P15328 25-234)
T1 construct: also called FRA; FR
Experiment: ELISA, recombinant human FRA coated
Description: Coating solution was discarded and the plates were washed three times using 1× PBS with 0.05% Tween-20 (PBST) buffer. Plates were blocked in 300 μL blocking buffer (1% BSA in PBST) at room temperature for 2 hours on an orbital shaker. […] Blocking buffer was discarded and 100 μL/well of diluted antibody was added to the plates. Plates were incubated at room temperature for 2 hours on an orbital shaker. Antibody solution was discarded and plates were washed three times using PBST. 100 μL/well of goat-anti-human IgG (H+L)-HRP (1:10,000 dilution in blocking buffer) solution was added to the plates, and plates were incubated at room temperature for 1 hour on an orbital shaker. Secondary antibody solution was discarded and plates were washed three times using PBST. 100 μL/well of QuantaBlu fluorogenic peroxidase substrate working solution (Thermo, Cat No. 15169) was added to the plates, and plates were incubated at room temperature for 30 min. Fluorescence was read at excitation 325 nm/emission 420 nm using a SpectraMax M5 (Molecular Devices). Data was analyzed using SoftMaxPro 5.4.2 software with 4-parameter fitting.

T1 sequence (P15328 25-234 limits assumed): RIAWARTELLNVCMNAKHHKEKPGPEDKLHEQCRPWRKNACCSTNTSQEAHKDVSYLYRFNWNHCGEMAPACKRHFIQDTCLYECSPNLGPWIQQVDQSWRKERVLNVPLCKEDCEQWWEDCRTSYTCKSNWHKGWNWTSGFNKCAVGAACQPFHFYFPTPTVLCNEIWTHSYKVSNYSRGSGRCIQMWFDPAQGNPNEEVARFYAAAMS

B1: MORAb003-ER1242287 (antibody, human IgG1, kappa, V domains shown)
VH: EVQLVESGGGVVQPGRSLRLSCSASGFTFSGYGLSWVRQAPGKGLEWVAMISSGGSYTYYADSVKGRFAISRDNAKNTLFLQMDSLRPEDTGVYFCARHGDDPAWFAYWGQGTPVTVSS
VL: DIQLTQSPSSLSASVGDRVTITCSVSSSISSNNLHWYQQKPGKAPKPWIYGTSNLASGVPSRFSGSGSGTDYTFTISSLQPEDIATYYCQQWSSYPYMYTFGQGTKVEIKR
modifications: Mal-PEG8-Val-Cit-pAB-eribulin on interchain cysteines, sites not given
notes: Antibody-drug conjugate
B1 was tested, and the EC50 was 0.0215 µg/mL and 0.14 nM.

B2: MORAb003-ER1231690 (antibody, human IgG1, kappa, V domains shown)
VH: EVQLVESGGGVVQPGRSLRLSCSASGFTFSGYGLSWVRQAPGKGLEWVAMISSGGSYTYYADSVKGRFAISRDNAKNTLFLQMDSLRPEDTGVYFCARHGDDPAWFAYWGQGTPVTVSS
VL: DIQLTQSPSSLSASVGDRVTITCSVSSSISSNNLHWYQQKPGKAPKPWIYGTSNLASGVPSRFSGSGSGTDYTFTISSLQPEDIATYYCQQWSSYPYMYTFGQGTKVEIKR
modifications: Mal-PEG2-(Ala-Ala-Asn-pAB)2-eribulin on interchain cysteines, sites not given
notes: Antibody-drug conjugate
B2 was tested, and the EC50 was 0.00892 µg/mL and 0.06 nM.

B3: MORAb003-PEG2-eribulin (antibody, human IgG1, kappa, V domains shown)
VH: EVQLVESGGGVVQPGRSLRLSCSASGFTFSGYGLSWVRQAPGKGLEWVAMISSGGSYTYYADSVKGRFAISRDNAKNTLFLQMDSLRPEDTGVYFCARHGDDPAWFAYWGQGTPVTVSS
VL: DIQLTQSPSSLSASVGDRVTITCSVSSSISSNNLHWYQQKPGKAPKPWIYGTSNLASGVPSRFSGSGSGTDYTFTISSLQPEDIATYYCQQWSSYPYMYTFGQGTKVEIKR
modifications: Mal-PEG2-eribulin (non-cleavable) on interchain cysteines, sites not given
notes: Antibody-drug conjugate
B3 was tested, and the EC50 was 0.00696 µg/mL and 0.05 nM.

B4: MORAb003-ER1236940 (antibody, human IgG1, kappa, V domains shown)
VH: EVQLVESGGGVVQPGRSLRLSCSASGFTFSGYGLSWVRQAPGKGLEWVAMISSGGSYTYYADSVKGRFAISRDNAKNTLFLQMDSLRPEDTGVYFCARHGDDPAWFAYWGQGTPVTVSS
VL: DIQLTQSPSSLSASVGDRVTITCSVSSSISSNNLHWYQQKPGKAPKPWIYGTSNLASGVPSRFSGSGSGTDYTFTISSLQPEDIATYYCQQWSSYPYMYTFGQGTKVEIKR
modifications: NHS-PEG2-Val-Cit-pAB-eribulin on lysines, sites not given
notes: Antibody-drug conjugate; DAR 0.72 (LC-MS)
For B4, the EC50 was 0.017 µg/mL and 0.11 nM.

B5: MORAb003-ER1231679 (antibody, human IgG1, kappa, V domains shown)
VH: EVQLVESGGGVVQPGRSLRLSCSASGFTFSGYGLSWVRQAPGKGLEWVAMISSGGSYTYYADSVKGRFAISRDNAKNTLFLQMDSLRPEDTGVYFCARHGDDPAWFAYWGQGTPVTVSS
VL: DIQLTQSPSSLSASVGDRVTITCSVSSSISSNNLHWYQQKPGKAPKPWIYGTSNLASGVPSRFSGSGSGTDYTFTISSLQPEDIATYYCQQWSSYPYMYTFGQGTKVEIKR
modifications: Mal-PEG2-Ala-Ala-Asn-pAB-eribulin on interchain cysteines, sites not given
notes: Antibody-drug conjugate
B5 was tested, and the EC50 was 0.0183 µg/mL and 0.12 nM.

B6: MORAb003-ER1235638 (antibody, human IgG1, kappa, V domains shown)
VH: EVQLVESGGGVVQPGRSLRLSCSASGFTFSGYGLSWVRQAPGKGLEWVAMISSGGSYTYYADSVKGRFAISRDNAKNTLFLQMDSLRPEDTGVYFCARHGDDPAWFAYWGQGTPVTVSS
VL: DIQLTQSPSSLSASVGDRVTITCSVSSSISSNNLHWYQQKPGKAPKPWIYGTSNLASGVPSRFSGSGSGTDYTFTISSLQPEDIATYYCQQWSSYPYMYTFGQGTKVEIKR
modifications: Mal-(CH2)5-Val-Cit-pAB-eribulin on interchain cysteines, sites not given
notes: Antibody-drug conjugate
In the case of B6, the EC50 is reported as 0.0153 µg/mL and 0.1 nM.

B7: MORAb003-ER1236941 (antibody, human IgG1, kappa, V domains shown)
VH: EVQLVESGGGVVQPGRSLRLSCSASGFTFSGYGLSWVRQAPGKGLEWVAMISSGGSYTYYADSVKGRFAISRDNAKNTLFLQMDSLRPEDTGVYFCARHGDDPAWFAYWGQGTPVTVSS
VL: DIQLTQSPSSLSASVGDRVTITCSVSSSISSNNLHWYQQKPGKAPKPWIYGTSNLASGVPSRFSGSGSGTDYTFTISSLQPEDIATYYCQQWSSYPYMYTFGQGTKVEIKR
modifications: NHS-(CH2)5-Val-Cit-pAB-eribulin on lysines, sites not given
notes: Antibody-drug conjugate; DAR 0.77 (LC-MS)
B7 was tested, and the EC50 was 0.013 µg/mL and 0.09 nM.

B8: MORAb003-ER1243700 (antibody, human IgG1, kappa, V domains shown)
VH: EVQLVESGGGVVQPGRSLRLSCSASGFTFSGYGLSWVRQAPGKGLEWVAMISSGGSYTYYADSVKGRFAISRDNAKNTLFLQMDSLRPEDTGVYFCARHGDDPAWFAYWGQGTPVTVSS
VL: DIQLTQSPSSLSASVGDRVTITCSVSSSISSNNLHWYQQKPGKAPKPWIYGTSNLASGVPSRFSGSGSGTDYTFTISSLQPEDIATYYCQQWSSYPYMYTFGQGTKVEIKR
modifications: NHS-PEG3-triazole-PEG3-Val-Cit-pAB-eribulin on lysines, sites not given
notes: Antibody-drug conjugate preparation; DAR 0.00 (LC-MS)
For B8, the EC50 was 0.00622 µg/mL and 0.04 nM.

B9: MORAb003-ER1244129 (antibody, human IgG1, kappa, V domains shown)
VH: EVQLVESGGGVVQPGRSLRLSCSASGFTFSGYGLSWVRQAPGKGLEWVAMISSGGSYTYYADSVKGRFAISRDNAKNTLFLQMDSLRPEDTGVYFCARHGDDPAWFAYWGQGTPVTVSS
VL: DIQLTQSPSSLSASVGDRVTITCSVSSSISSNNLHWYQQKPGKAPKPWIYGTSNLASGVPSRFSGSGSGTDYTFTISSLQPEDIATYYCQQWSSYPYMYTFGQGTKVEIKR
modifications: NHS-PEG3-triazole-PEG3-disulfide-pAB-eribulin on lysines, sites not given
notes: Antibody-drug conjugate; DAR 0.24 (LC-MS)
With B9 the EC50 was 0.0143 µg/mL and 0.1 nM.

B10: MORAb003-ER1237505 (antibody, human IgG1, kappa, V domains shown)
VH: EVQLVESGGGVVQPGRSLRLSCSASGFTFSGYGLSWVRQAPGKGLEWVAMISSGGSYTYYADSVKGRFAISRDNAKNTLFLQMDSLRPEDTGVYFCARHGDDPAWFAYWGQGTPVTVSS
VL: DIQLTQSPSSLSASVGDRVTITCSVSSSISSNNLHWYQQKPGKAPKPWIYGTSNLASGVPSRFSGSGSGTDYTFTISSLQPEDIATYYCQQWSSYPYMYTFGQGTKVEIKR
modifications: Mal-PEG4-triazole-PEG3-sulfonamide-pAB-eribulin on interchain cysteines, sites not given
notes: Antibody-drug conjugate
B10 was tested, and the EC50 was 0.0183 µg/mL and 0.12 nM.
